28 sequences from the supplement of paper PMC10724198 can be followed below.

The data set concerns Saccharomyces cerevisiae. Put plainly: protein stability index of tFT-peptide fusion (C-terminal peptide) (PSI (0-1 scale)); higher = more stable (slower turnover). The settings on record: temperature: 30 C. As to the method: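 MPS profiling in S. cerevisiae of the yeast C-terminome library: the last 12 aa of each annotated ORF are fused to the C-terminus of a sfGFP-mCherry timer, after a GGGS linker. Cells are FACS-sorted into 8 mCherry/sfGFP bins and deep-sequenced. PSI runs from 0 (unstable) to 1 (stable); wild type and das1Δ backgrounds, two technical replicates each.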

Setting [1] is: genetic background: das1 deletion.

± gives the standard deviation of the averaged measurements.

In the case of IDKLRNSFYKTI [SMU2 C-terminal 12 aa], the protein stability index worked out at 0.687 ± 0.028 under setting [1] and 0.515 ± 0.028 (genetic background: wild type).
For IDSNNAQSKIFS [MYO1 C-terminal 12 aa], in that order: 0.6956 ± 0.00034 and 0.6648 ± 0.0055.
For the sequence IDVELEEESFTW [FRE1 C-terminal 12 aa], the protein stability index under setting [1] was 0.698 ± 0.024 and the protein stability index (genetic background: wild type) stood at 0.743 ± 0.022.
For IEFSMRSLCQGK [CFT1 C-terminal 12 aa], in that order: 0.7166 ± 0.0059 and 0.685 ± 0.038.
Take IEHYKSEQEKSL [MUP1 C-terminal 12 aa]: the protein stability index runs as follows: under setting [1], 0.6971 ± 0.0015; (genetic background: wild type) 0.67 ± 0.035.
Consider IEQETGSEEKQE [SBP1 C-terminal 12 aa], for which the protein stability index stood at 0.6781 ± 0.0035 under setting [1] and 0.7729 ± 0.0054 (genetic background: wild type).
Taken in the same sequence, the figures for IFCTLFIHTQIL [PLC1 C-terminal 12 aa] were 0.138 ± 0.011 and 0.143 ± 0.023.
Taken in the same sequence, the figures for IFHQLQKKINRS [IWR1 C-terminal 12 aa] were 0.703 ± 0.0083 and 0.6656 ± 0.0027.
The sequence IFIFSWLGYEDS [ATG10 C-terminal 12 aa] returned a protein stability index under setting [1] of 0.661 ± 0.043 and a protein stability index (genetic background: wild type) of 0.664 ± 0.019.
Turning to IGEWTISYTSLI [IPA1 C-terminal 12 aa], the protein stability index is, setting by setting: under setting [1], 0.66 ± 0.015; (genetic background: wild type) 0.669 ± 0.041.
With IGFKRKRKHAKK [NOP4 C-terminal 12 aa], the protein stability index is, setting by setting: under setting [1], 0.703 ± 0.051; (genetic background: wild type) 0.7117 ± 0.0028.
Regarding IGFNKLGQMVYI [MRPS35 C-terminal 12 aa], the protein stability index under setting [1] is 0.669 ± 0.018 and the protein stability index (genetic background: wild type) is 0.666 ± 0.029.
Taken in the same sequence, the figures for IGGNCATRLFKL [SLM6 C-terminal 12 aa] were 0.7481 ± 0.0008 and 0.737 ± 0.024.
For IGRRKLVGYKHH [ATP20 C-terminal 12 aa], in that order: 0.702 ± 0.02 and 0.666 ± 0.015.
As to IGSIKEDYLGAI [RPB7 C-terminal 12 aa], the protein stability index by setting is: under setting [1], 0.692 ± 0.021; (genetic background: wild type) 0.6737 ± 0.0027.
Taken in the same sequence, the figures for IHYFKSNLSSPS [RAM1 C-terminal 12 aa] were 0.688 ± 0.022 and 0.724 ± 0.028.
Taken in the same sequence, the figures for IIDLNLHSFTKQ [POP6 C-terminal 12 aa] were 0.722 ± 0.022 and 0.73 ± 0.021.
For IKLADAIYKGLE [FOL1 C-terminal 12 aa], in that order: 0.702 ± 0.013 and 0.6648 ± 0.0011.
As for IKNTGDLLKLYK [ALK1 C-terminal 12 aa], the protein stability index is, setting by setting: under setting [1], 0.685 ± 0.021; (genetic background: wild type) 0.647 ± 0.0085.
ILELVNEDYQSI [MRP17 C-terminal 12 aa]: the protein stability index runs as follows: under setting [1], 0.738 ± 0.048; (genetic background: wild type) 0.71 ± 0.039.
Consider ILEYQKRRSFIK [IRC3 C-terminal 12 aa], for which the protein stability index by setting is: under setting [1], 0.7238 ± 0.0049; (genetic background: wild type) 0.652 ± 0.021.
As for ILKPYYIWNNRN [ARR3 C-terminal 12 aa], the protein stability index under setting [1] was 0.7161 ± 0.0069 and the protein stability index (genetic background: wild type) was 0.276 ± 0.0074.
Consider ILRLRLRKATFD [PRM1 C-terminal 12 aa], for which the protein stability index under setting [1] stood at 0.706 ± 0.023 and the protein stability index (genetic background: wild type) amounted to 0.708 ± 0.044.
Consider ILRQARCDRPHY [YEL068C C-terminal 12 aa], for which the protein stability index was 0.691 ± 0.02 under setting [1] and 0.727 ± 0.071 (genetic background: wild type).
Taken in the same sequence, the figures for “ILVLRHFDEIFI [YOR032W-A C-terminal 12 aa]” were 0.63 ± 0.0065 and 0.655 ± 0.044.
As to IMICFLERRKGN [FYV1 C-terminal 12 aa], the protein stability index turned out to be 0.652 ± 0.018 under setting [1] and 0.638 ± 0.075 (genetic background: wild type).
For “IMTSEIVTNALR [YEL030C-A C-terminal 12 aa]”, in that order: 0.70774 ± 0.00013 and 0.705 ± 0.022.
Regarding INDKNTEYTLKE [MRX9 C-terminal 12 aa], the protein stability index is, setting by setting: under setting [1], 0.703 ± 0.019; (genetic background: wild type) 0.732 ± 0.017.
